Test results as given in IntAct's records for PubMed 31515488.

B1: Keratin, type I cytoskeletal 20 (Homo sapiens), P35900 (parent)
chain: MDFSRRSFHRSLSSSLQAPVVSTVGMQRLGTTPSVYGGAGGRGIRISNSRHTVNYGSDLTGGGDLFVGNEKMAMQNLNDRLASYLEKVRTLEQSNSKLEVQIKQWYETNAPRAGRDYSAYYRQIEELRSQIKDAQLQNARCVLQIDNAKLAAEDFRLKYETERGIRLTVEADLQGLNKVFDDLTLHKTDLEIQIEELNKDLALLKKEHQEEVDGLHKHLGNTVNVEVDAAPGLNLGVIMNEMRQKYEVMAQKNLQEAKEQFERQTAVLQQQVTVNTEELKGTEVQLTELRRTSQSLEIELQSHLSMKESLEHTLEETKARYSSQLANLQSLLSSLEAQLMQIRSNMERQNNEYHILLDIKTRLEQEIATYRRLLEGEDVKTTEYQLSTLEERDIKKTRKIKTVVQEVVDGKVVSSEVKEVEENI
B2: Seipin (Homo sapiens), Q96G97-4 (parent)
chain: MSTEKVDQKEEAGEKEVCGDQIKGPDKEEEPPAAASHGQGWRPGGRAARNARPEPGARHPALPAMVNDPPVPALLWAQEVGQVLAGRARRLLLQFGVLFCTILLLLWVSVFLYGSFYYSYMPTVSHLSPVHFYYRTDCDSSTTSLCSFPVANVSLTKGGRDRVLMYGQPYRVTLELELPESPVNQDLGMFLVTISCYTRGGRIISTSSRSVMLHYRSDLLQMLDTLVFSSLLLFGFAEQKQLLEVELYADYRENSYVPTTGAIIEIHSKRIQLYGAYLRIHAHFTGLRYLLYNFPMTCAFIGVASNFTFLSVIVLFSYMQWVWGGIWPRHRFSLQVNIRKRDNSRKEVQRRISAHQPGPEGQEESTPQSDVTEDGESPEDPSGTEGQLSEEEKPDQQPLSGEEELEPEASDGSGSWEDAALLTEANLPAPAPASASAPVLETLGSSEPAGGALRQRPTCSSS
partner: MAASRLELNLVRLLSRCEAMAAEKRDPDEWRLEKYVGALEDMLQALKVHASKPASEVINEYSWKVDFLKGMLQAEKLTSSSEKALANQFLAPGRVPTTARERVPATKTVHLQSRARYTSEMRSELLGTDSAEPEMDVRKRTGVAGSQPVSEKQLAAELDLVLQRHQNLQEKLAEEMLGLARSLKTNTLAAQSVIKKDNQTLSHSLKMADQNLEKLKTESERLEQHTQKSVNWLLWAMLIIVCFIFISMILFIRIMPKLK
B3: Uncharacterized protein C3orf62 (Homo sapiens), Q6ZUJ4 (parent)
chain: MHYIKTWSLLGEMSEKLRRCRKELTAAIDRAFEGVSYSQECTGQQRLELSAAPLSFSLPVHRLLCRRHPLAACSSAAPFAAVPCAPENENPAFATNHAPVNAKPHALCPERKPLTSKENVLMHSSILAPERESWRTAGEGENWRKENLRKDMERDLKADSNMPLNNSSQEVTKDLLDMIDHTSIRTIEELAGKIEFENELNHMCGHCQDSPFKEEAWALLMDKSPQKATDADPGSLKQAFDDHNIVETVLDLEEDYNVMTSFKYQIE
B4: Isoform 1 of Nuclear RNA export factor 3 (Homo sapiens), Q9H4D5-1 (parent)
chain: MSLPSGHTTGHTDQVVQRRARCWDIYQRRFSSRSEPVNPGMHSSSHQQQDGDAAMHGAHMDSPVRYTPYTISPYNRKGSFRKQDQTHVNMEREQKPPERRMEGNMPDGTLGSWFKITVPFGIKYNEKWLLNLIQNECSVPFVPVEFHYENMHASFFVENASIAYALKNVSGKIWDEDNEKISIFVNPAGIPHFVHRELKSEKVEQIKLAMNQQCDVSQEALDIQRLPFYPDMVNRDTKMASNPRKCMAASLDVHEENIPTVMSAGEMDKWKGIEPGEKCADRSPVCTTFSDTSSNINSILELFPKLLCLDGQQSPRATLCGTEAHKRLPTCKGSFFGSEMLKNLVLQFLQQYYLIYDSGDRQGLLSAYHDEACFSLSIPFNPEDSAPSSFCKFFKDSRNIKILKDPYLRGELLKHTKLDIVDSLSALPKTQHDLSSFLVDMWYQTEWMLCFSVNGVFKEVEGQSQGSVLAFTRTFIATPGSSSSLCIVNDKLFVRDTSHQGTQSALFTLVPTAFSSSVPAFSQEQQKMLPS
partner: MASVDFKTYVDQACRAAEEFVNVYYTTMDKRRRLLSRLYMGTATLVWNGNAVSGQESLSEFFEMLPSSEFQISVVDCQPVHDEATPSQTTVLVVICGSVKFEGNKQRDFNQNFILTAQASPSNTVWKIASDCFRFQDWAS
B5: Keratin, type II cytoskeletal 79 (Homo sapiens), Q5XKE5 (parent)
chain: MRSSVSRQTYSTKGGFSSNSASGGSGSQARTSFSSVTVSRSSGSGGGAHCGPGTGGFGSRSLYNLGGHKSISVSVAGGALLGRALGGFGFGSRAFMGQGAGRQTFGPACPPGGIQEVTVNQSLLTPLHVEIDPEIQRVRTQEREQIKTLNNKFASFIDKVRFLEQQNKVLETKWALLQEQGQNLGVTRNNLEPLFEAYLGSMRSTLDRLQSERGRLDSELRNVQDLVEDFKNKYEDEINKHTAAENEFVVLKKDVDAAYMGRMDLHGKVGTLTQEIDFLQQLYEMELSQVQTHVSNTNVVLSMDNNRNLDLDSIIAEVKAQYELIAQRSRAEAEAWYQTKYEELQVTAGKHGDNLRDTKNEIAELTRTIQRLQGEADAAKKQCQQLQTAIAEAEQRGELALKDAQKKLGDLDVALHQAKEDLTRLLRDYQELMNVKLALDVEIATYRKLLESEESRMSGECPSAVSISVTGNSTTVCGGGAASFGGGISLGGSGGATKGGFSTNVGYSTVKGGPVSAGTSILRKTTTVKTSSQRY
partner: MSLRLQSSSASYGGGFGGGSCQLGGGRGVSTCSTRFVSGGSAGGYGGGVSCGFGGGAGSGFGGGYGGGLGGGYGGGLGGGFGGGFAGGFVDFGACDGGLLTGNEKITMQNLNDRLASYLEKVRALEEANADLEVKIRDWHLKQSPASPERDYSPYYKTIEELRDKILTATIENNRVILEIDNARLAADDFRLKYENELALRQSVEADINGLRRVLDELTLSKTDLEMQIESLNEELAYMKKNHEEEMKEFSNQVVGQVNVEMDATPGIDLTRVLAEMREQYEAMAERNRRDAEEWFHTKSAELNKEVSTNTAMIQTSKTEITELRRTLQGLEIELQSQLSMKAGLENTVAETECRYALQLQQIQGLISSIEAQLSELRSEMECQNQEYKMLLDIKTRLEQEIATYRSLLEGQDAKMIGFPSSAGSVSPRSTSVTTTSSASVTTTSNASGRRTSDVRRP

Variants of: B1
Settings: with KRT15, P19012
Chain of KRT15, P19012 (P19012 whole entry): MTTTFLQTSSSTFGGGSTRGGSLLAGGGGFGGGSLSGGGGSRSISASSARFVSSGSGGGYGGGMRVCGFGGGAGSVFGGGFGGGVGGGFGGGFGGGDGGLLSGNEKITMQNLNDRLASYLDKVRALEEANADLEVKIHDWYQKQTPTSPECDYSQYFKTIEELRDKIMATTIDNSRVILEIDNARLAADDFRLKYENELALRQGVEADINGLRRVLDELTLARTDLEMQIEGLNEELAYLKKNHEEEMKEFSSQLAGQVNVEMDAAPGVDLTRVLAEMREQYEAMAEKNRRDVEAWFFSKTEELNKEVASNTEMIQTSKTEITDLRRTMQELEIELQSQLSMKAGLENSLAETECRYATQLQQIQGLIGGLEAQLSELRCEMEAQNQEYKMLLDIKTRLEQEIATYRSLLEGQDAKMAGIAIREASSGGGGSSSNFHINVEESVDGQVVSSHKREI

| effect of a mutation on the interaction | Variant |
| --- | --- |
| with no effect | S309Y |

Variants of: B1
Settings: with vime_human VIM

| effect of a mutation on the interaction | Variant |
| --- | --- |
| with no effect | S309Y |

Variants of: B2
Settings: with use1_human USE1, Q9NZ43

| effect of a mutation on the interaction | Variant |
| --- | --- |
| with no effect | D20E |

Variants of: B3
Settings: with mr1l1_human MRFAP1L1, Q96HT8
Chain of mr1l1_human MRFAP1L1, Q96HT8 (Q96HT8 whole entry): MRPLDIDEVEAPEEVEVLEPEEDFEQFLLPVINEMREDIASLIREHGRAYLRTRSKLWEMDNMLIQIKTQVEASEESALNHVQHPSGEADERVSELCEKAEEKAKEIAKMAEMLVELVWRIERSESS

| effect of a mutation on the interaction | Variant |
| --- | --- |
| with no effect | V60M |
| with no effect | N142D |
| with no effect | E110K |
| with no effect | M203I |

Variants of: B4
Settings: with nxt1_human NXT1, Q9UKK6

| effect of a mutation on the interaction | Variant |
| --- | --- |
| with no effect | T9K |

Variants of: B4
Settings: with nxt1_human NXT1, Q9UKK6
Remark: another data set of the same source

| effect of a mutation on the interaction | Variant |
| --- | --- |
| disrupting interaction strength | R409W |

Variants of: B5
Settings: with KRT13, P13646

| effect of a mutation on the interaction | Variant |
| --- | --- |
| with no effect | D217Y |
| with no effect | R161Q |
| with no effect | R213W |
| with no effect | G86E |
